Measurements: the supplement of paper PMC10567573

B1: SETD8 (parent)
chain: FVVEYHGDLIEITDAKKREALYAQ
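Further: lentivirally expressed fusions sorted by FACS into six bins by GFP to DsRed ratio, PSI derived from sequencing read proportions per bin multiplied by bin number.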

Variants of: B1
Test: protein stability index of a GFP-peptide fusion (GPS, HEK-293T) (PSI 1-6); higher = more stable
Conditions: c terminus: a fixed tail appended
Work on FVVEYHGDLIEITDAKKRESLYAQ [A20S] yielded a protein stability index of 2.3. For FVVEYHGDLIEITDAKKREFLYAQ [A20F], the protein stability index was 1.39. FVVEYHGDLIEITDAKKREILYAQ [A20I] gave a protein stability index of 2.09. For FVVEYHGDLIEITDAKKREELYAQ [A20E], the protein stability index was 2.67. FVVEYHGDLIEITDAKKRENLYAQ [A20N] gave a protein stability index of 1.7. In the case of FVVEYHGDLIEITDAKKREPLYAQ [A20P], the protein stability index is reported as 1.08. With FVVEYHGDLIEITDAKKRELLYAQ [A20L] the protein stability index was 1.39. FVVEYHGDLIEITDAKKRETLYAQ [A20T] gave a protein stability index of 2.06. FVVEYHGDLIEITDAKKREHLYAQ [A20H] showed a protein stability index of 2.64. FVVEYHGDLIEITDAKKREMLYAQ [A20M] showed a protein stability index of 1.38. Variant FVVEYHGDLIEITDAKKREVLYAQ [A20V] has a protein stability index of 1.97. In the case of FVVEYHGDLIEITDAKKREKLYAQ [A20K], the protein stability index is reported as 1.85. With FVVEYHGDLIEITDAKKREQLYAQ [A20Q] the protein stability index was 1.78. FVVEYHGDLIEITDAKKRECLYAQ [A20C] showed a protein stability index of 2.08. With FVVEYHGDLIEITDAKKREYLYAQ [A20Y] the protein stability index was 1.71. With FVVEYHGDLIEITDAKKREWLYAQ [A20W] the protein stability index was 1.47. FVVEYHGDLIEITDAKKREDLYAQ [A20D] showed a protein stability index of 2.48. Work on FVVEYHGDLIEITDAKKRERLYAQ [A20R] yielded a protein stability index of 1.68. For FVVEYHGDLIEITDAKKREGLYAQ [A20G], the protein stability index was 1.75. With FVVEYHGDLIEITDAKKREALYLQ [A23L] the protein stability index was 2.36. FVVEYHGDLIEITDAKKREALYKQ [A23K] gave a protein stability index of 2.17. In the case of FVVEYHGDLIEITDAKKREALYQQ [A23Q], the protein stability index is reported as 1.85. Variant FVVEYHGDLIEITDAKKREALYCQ [A23C] has a protein stability index of 1.29. Variant FVVEYHGDLIEITDAKKREALYPQ [A23P] has a protein stability index of 1.89. In the case of FVVEYHGDLIEITDAKKREALYRQ [A23R], the protein stability index is reported as 2.3. In the case of FVVEYHGDLIEITDAKKREALYEQ [A23E], the protein stability index is reported as 1.84. In the case of FVVEYHGDLIEITDAKKREALYMQ [A23M], the protein stability index is reported as 1.83. For FVVEYHGDLIEITDAKKREALYNQ [A23N], the protein stability index was 1.69. With FVVEYHGDLIEITDAKKREALYFQ [A23F] the protein stability index was 2.57. In the case of FVVEYHGDLIEITDAKKREALYTQ [A23T], the protein stability index is reported as 2.21. FVVEYHGDLIEITDAKKREALYSQ [A23S] showed a protein stability index of 1.92. For FVVEYHGDLIEITDAKKREALYVQ [A23V], the protein stability index was 1.65. With FVVEYHGDLIEITDAKKREALYIQ [A23I] the protein stability index was 1.6. Variant FVVEYHGDLIEITDAKKREALYDQ [A23D] has a protein stability index of 1.79. For FVVEYHGDLIEITDAKKREALYGQ [A23G], the protein stability index was 1.13. In the case of FVVEYHGDLIEITDAKKREALYHQ [A23H], the protein stability index is reported as 2.1. FVVEYHGDLIEITDAKAREALYAQ [K17A] gave a protein stability index of 1.59. In the case of FVVEYHGDLIEITDAKMREALYAQ [K17M], the protein stability index is reported as 2.46. Variant FVVEYHGDLIEITDAKEREALYAQ [K17E] has a protein stability index of 2.14. With FVVEYHGDLIEITDAKLREALYAQ [K17L] the protein stability index was 1.73. With FVVEYHGDLIEITDAKRREALYAQ [K17R] the protein stability index was 1.33. With FVVEYHGDLIEITDAKCREALYAQ [K17C] the protein stability index was 2.17. In the case of FVVEYHGDLIEITDAKYREALYAQ [K17Y], the protein stability index is reported as 1.34. FVVEYHGDLIEITDAKHREALYAQ [K17H] gave a protein stability index of 1.61. For FVVEYHGDLIEITDAKNREALYAQ [K17N], the protein stability index was 2.06. With FVVEYHGDLIEITDAKQREALYAQ [K17Q] the protein stability index was 1.85. Work on FVVEYHGDLIEITDAKSREALYAQ [K17S] yielded a protein stability index of 1.81. For FVVEYHGDLIEITDAKWREALYAQ [K17W], the protein stability index was 1.84. FVVEYHGDLIEITDAKTREALYAQ [K17T] showed a protein stability index of 1.6. Variant FVVEYHGDLIEITDAKVREALYAQ [K17V] has a protein stability index of 2.07. Variant FVVEYHGDLIEITDAKGREALYAQ [K17G] has a protein stability index of 1.26. Work on FVVEYHGDLIEITDAKFREALYAQ [K17F] yielded a protein stability index of 2.17. FVVEYHGDLIEITDAKDREALYAQ [K17D] gave a protein stability index of 1.65. Work on FVVEYHGDLIEITDAKIREALYAQ [K17I] yielded a protein stability index of 1.75. FVVEYHGDLIEITLAKKREALYAQ [D14L] gave a protein stability index of 1.16. With FVVEYHGDLIEITMAKKREALYAQ [D14M] the protein stability index was 1.95. FVVEYHGDLIEITFAKKREALYAQ [D14F] showed a protein stability index of 2.45. FVVEYHGDLIEITCAKKREALYAQ [D14C] showed a protein stability index of 1.46. For FVVEYHGDLIEITSAKKREALYAQ [D14S], the protein stability index was 1.88. With FVVEYHGDLIEITGAKKREALYAQ [D14G] the protein stability index was 3.5. Variant FVVEYHGDLIEITVAKKREALYAQ [D14V] has a protein stability index of 1.45. FVVEYHGDLIEITTAKKREALYAQ [D14T] showed a protein stability index of 1.21. For FVVEYHGDLIEITAAKKREALYAQ [D14A], the protein stability index was 2.08. Variant FVVEYHGDLIEITQAKKREALYAQ [D14Q] has a protein stability index of 2.13. FVVEYHGDLIEITKAKKREALYAQ [D14K] showed a protein stability index of 2.58. Work on FVVEYHGDLIEITHAKKREALYAQ [D14H] yielded a protein stability index of 1.52. Work on FVVEYHGDLIEITEAKKREALYAQ [D14E] yielded a protein stability index of 2.75. FVVEYHGDLIEITIAKKREALYAQ [D14I] showed a protein stability index of 2.69. Work on FVVEYHGDLIEITPAKKREALYAQ [D14P] yielded a protein stability index of 1.37. In the case of FVVEYHGDLIEITNAKKREALYAQ [D14N], the protein stability index is reported as 1.65. Variant FVVEYHGDLIEITWAKKREALYAQ [D14W] has a protein stability index of 1.31. FVVEYHGDLIEITRAKKREALYAQ [D14R] gave a protein stability index of 1.72. FVVEYHGDLIEITDAKKREAPYAQ [L21P] showed a protein stability index of 3.09. FVVEYHGDLIEITDAKKREAAYAQ [L21A] showed a protein stability index of 2.01. Variant FVVEYHGDLIEITDAKKREAQYAQ [L21Q] has a protein stability index of 2.21. Work on FVVEYHGDLIEITDAKKREAMYAQ [L21M] yielded a protein stability index of 1.7. Work on FVVEYHGDLIEITDAKKREAWYAQ [L21W] yielded a protein stability index of 2.22. With FVVEYHGDLIEITDAKKREAFYAQ [L21F] the protein stability index was 1.73. FVVEYHGDLIEITDAKKREAEYAQ [L21E] showed a protein stability index of 2.88. For FVVEYHGDLIEITDAKKREANYAQ [L21N], the protein stability index was 1.81. Variant FVVEYHGDLIEITDAKKREARYAQ [L21R] has a protein stability index of 1.39. Work on FVVEYHGDLIEITDAKKREADYAQ [L21D] yielded a protein stability index of 2.52. FVVEYHGDLIEITDAKKREATYAQ [L21T] showed a protein stability index of 1.94. Work on FVVEYHGDLIEITDAKKREAGYAQ [L21G] yielded a protein stability index of 2.05. Work on FVVEYHGDLIEITDAKKREAHYAQ [L21H] yielded a protein stability index of 2.79. FVVEYHGDLIEITDAKKREACYAQ [L21C] gave a protein stability index of 1.82. For FVVEYHGDLIEITDAKKREAIYAQ [L21I], the protein stability index was 1.36. For FVVEYHGDLIEITDAKKREASYAQ [L21S], the protein stability index was 2.36. In the case of FVVEYHGDLIEITDAKKREAKYAQ [L21K], the protein stability index is reported as 2.38. FVVEYHGDLIEITDAKKREAVYAQ [L21V] showed a protein stability index of 1.91. FVVEYHGDLIEITDAKKREAYYAQ [L21Y] gave a protein stability index of 1.97. FVVEYHGDLIEITDAKKREALMAQ [Y22M] showed a protein stability index of 2.95. FVVEYHGDLIEITDAKKREALNAQ [Y22N] gave a protein stability index of 3.26. For FVVEYHGDLIEITDAKKREALGAQ [Y22G], the protein stability index was 1.43.
